In US20160083733A1, “NOVEL TREATMENT OF METABOLIC DISEASES” (UNIVERSITY OF BREMEN, priority 2013, published 2016):

B1: dnJNK1: dominant negative mutant of JNK1 expressed from plasmid pCDNA3 Jnk1a1 (apf) (protein, UniProt P45983 1-427, looked up, variant T183A Y185F)
Mitogen-activated protein …: MSRSKRDNNFYSVEIGDSTFTVLKRYQNLKPIGSGAQGIVCAAYDAILERNVAIKKLSRPFQNQTHAKRAYRELVLMKCVNHKNIIGLLNVFTPQKSLEEFQDVYIVMELMDANLCQVIQMELDHERMSYLLYQMLCGIKHLHSAGIIHRDLKPSNIVVKSDCTLKILDFGLARTAGTSFMMAPFVVTRYYRAPEVILGMGYKENVDLWSVGCIMGEMVCHKILFPGRDYIDQWNKVIEQLGTPCPEFMKKLQPTVRTYVENRPKYAGYSFEKLFPDVLFPADSEHNKLKASQARDLLSKMLVIDASKRISVDEALQHPYINVWYDPSEAEAPPPKIPDKQLDEREHTIEEWKELIYKEVMDLEERTKNGVIRGQPSPLGAAVINGSQHPSSSSSVNDVSSMSTDPTLASDTDSSLEAAAGPLGCCR
B2: dnMST1: kinase-dead, dominant negative MST1 mutant (K59R) expressed from plasmid (protein, UniProt Q13043 1-487, looked up, variant K59R)
Serine/threonine-protein …: METVQLRNPPRRQLKKLDEDSLTKQPEEVFDVLEKLGEGSYGSVYKAIHKETGQIVAIRQVPVESDLQEIIKEISIMQQCDSPHVVKYYGSYFKNTDLWIVMEYCGAGSVSDIIRLRNKTLTEDEIATILQSTLKGLEYLHFMRKIHRDIKAGNILLNTEGHAKLADFGVAGQLTDTMAKRNTVIGTPFWMAPEVIQEIGYNCVADIWSLGITAIEMAEGKPPYADIHPMRAIFMIPTNPPPTFRKPELWSDNFTDFVKQCLVKSPEQRATATQLLQHPFVRSAKGVSILRDLINEAMDVKLKRQESQQREVDQDDEENSEEDEMDSGTMVRAVGDEMGTVRVASTMTDGANTMIEHDDTLPSQLGTMVINAEDEEEEGTMKRRDETMQPAKPSFLEYFEQKEKENQINSFGKSVPGPLKNSSDWKIPQDGDYEFLKSWTVEDLQKRLLALDPMMEQEIEEIRQKYQSKRQPILDAIEAKKRRQQNF

What was measured:
human islets = experiment: MST1 overexpression (Ad-MST1)-induced apoptosis in human islets; format: cell-based; conditions: Ad-MST1 48 h
From the text: (§1) Human islets were isolated from twenty pancreases of healthy organ donors and from five with T2D at the University of Illinois at Chicago or Lille University and cultured on extracellular matrix (ECM) coated dishes (Novamed, Jerusalem, Israel) as described previously (Schulthess et al., Cell. Metab. 9 (2009) 125-139). Islet purity was greater than 95% as judged by dithizone staining (if this degree of purity was not achieved by routine isolation, islets were handpicked). Islets from MST1^−/− mice and their WT littermates were isolated as described previously (Schulthess et al., Cell. Metab. 9 (2009) 125-139). […]
Pancreatic tissues were processed as previously described (Shu et al., Diabetes 57 (2007), 645-53). […] Slides were mounted with Vectashield with 4′6-diamidino-2-phenylindole (DAPI) (Vector Labs). β-cell apoptosis for mouse sections or primary islets cultured on ECM dishes was analyzed by the terminal deoxynucleotidyl transferase-mediated dUTP nick-end labeling (TUNEL) technique according to the manufacturer's instructions (In Situ Cell Death Detection Kit, TMR red; Roche) and double stained for insulin. Fluorescence was analyzed using a Nikon MEA53200 (Nikon GmbH, Dusseldorf, Germany) microscope and images were acquired using NIS-Elements software (Nikon). […]

PDX1 = PDX1 protein level, degradation and ubiquitination in HEK293 cells co-transfected with MST1; format: cell-based, mouse; conditions: co-transfection with PDX1 in HEK293 cells
From the text: pCMV-myc-MST1 and kinase-dead (MST1-K59; dnMST1) are described in Yamamoto et al., J. Clin. Invest. 111 (2003), 1463-1474. Mouse pB.RSV.PDX1-GFP is described in Kawamori et al., Diabetes 52 (2003) 2896-2904. pcDNA3 Myr-HA Akt1, HA-Ubiquitin and pCDNA3 Jnk1a1 (apf)(dn-JNK) plasmids were obtained from Addgene (Cambridge, Mass.). Mouse PDX1 mutants (T11, T126, T152, T155, T214 and T231) in pCGIG5 vector were generated by site-directed mutagenesis as described previously (Frogne et al., 7 (2012), e35233). All mutations were verified by sequencing. To make bacterial expression plasmids for PDX1 mutants, the complete mouse PDX1 CDS (wild type and mutants) has been amplified by PCR using a specific set of primers from pCGIG5 plasmids and cloned into a pGEX-6P-1 bacterial expression vector. The rat insulin driven luciferase vector (RIP-Luc) was constructed by subcloning a 700 by fragment containing −660 bp of the rat 2 insulin promoter into a pMCS-Green-Renilla-Luc vector (Thermo Scientific). pCMV-Red firefly Luc vector was obtained from Thermo Scientific.
HEK293 cells were cultured in 10-cm cell culture dishes and transfected with HA-ubiquitin, PDX1 and MST1 expression plasmids for 48 h. For ubiquitination in human islets, 5000 islets per condition were transfected with ubiquitin plasmid. After 24 h, islets were infected with Ad-GFP or Ad-MST1 for 6 h and kept for another 48 h. […]

INS-1E cells = experiment: Apoptotic markers, cytochrome c release and PDX1 in INS-1E cells under diabetogenic conditions; format: cell-based, rat; conditions: 33.3 mM glucose for 48 h, overexpression of dnMST1
From the text: as §1
At the end of the incubation periods, islets and INS1E cells were washed in ice-cold PBS and lysed in lysis buffer containing 20 mM Tris acetate, 0.27 M sucrose, 1 mM EDTA, 1 mM EGTA, 50 mM NaF, 1% Triton X-100, 5 mM sodium pyrophosphate and 10 mM β-glycerophosphate. […] Protein concentrations were determined with the BCA protein assay (Pierce). […] Membrane was developed using a chemiluminescence assay system (Pierce) and analyzed using DocIT®LS image acquisition 6.6a (UVP BioImaging Systems, Upland, Calif., USA). […]

Molecule | MST1-induced increase in Bim and subsequent caspase-3 cleavage (human islets) | PDX1 level (PDX1) | glucose-induced caspase-3 and PARP cleavage (INS-1E cells)
B1 | prevented | – | –
B2 | – | no effect | completely inhibited
